B1: library; numbered along this chain (parent)
chain: MAAAGGARLLRAASAVLGGPAGRWLHHAGSRAGSSGLLRNRGPGGSAEASRSLSVSARARSSSEDKITVHFINRDGETLTTKGKVGDSLLDVVVENNLDIDGFGACEGTLACSTCHLIFEDHIYEKLDAITDEENDMLDLAYGLTDRSRLGCQICLTKSMDNMTVRVPETVADARQSIDVGKTS

Variants of: B1
Assay: scaled log2 fold change in cell abundance, elesclomol vs control (0 = silent mean, 1 = nonsense mean) (scaled log2 ratio); higher = higher viability under elesclomol (loss of FDX1 cuproptosis function)
Settings: glucose 10 mM
[1] = with ABC1 FDX1 KO, elesclomol 5 nM, 14 days
[2] = with HEK293T FDX1 KO, elesclomol 40 nM, 11 days
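Also: variant abundance is its share of total variant reads in each endpoint sample, from next-generation sequencing of the integrated ORF PCR-amplified out of genomic DNA.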

Variant	scaled log2 fold change [1]	scaled log2 fold change [2]
MAAAGGARLLRAASAVLGGPAGRWLHHAGSRAGSSGLLRNRGPGGSAEASRSLSVSARARSSSEDKITVHFINRDGETLTTKGKVGDSLLDVVVENNLDHDGFGACEGTLACSTCHLIFEDHIYEKLDAITDEENDMLDLAYGLTDRSRLGCQICLTKSMDNMTVRVPETVADARQSIDVGKTS [I100H]	0.0888	-0.835
MAAAGGARLLRAASAVLGGPAGRWLHHAGSRAGSSGLLRNRGPGGSAEASRSLSVSARARSSSEDKITVHFINRDGETLTTKGKVGDSLLDVVVENNLDMDGFGACEGTLACSTCHLIFEDHIYEKLDAITDEENDMLDLAYGLTDRSRLGCQICLTKSMDNMTVRVPETVADARQSIDVGKTS [I100M]	-0.119	-0.526
MAAAGGARLLRAASAVLGGPAGRWLHHAGSRAGSSGLLRNRGPGGSAEASRSLSVSARARSSSEDKITVHFINRDGETLTTKGKVGDSLLDVVVENNLDWDGFGACEGTLACSTCHLIFEDHIYEKLDAITDEENDMLDLAYGLTDRSRLGCQICLTKSMDNMTVRVPETVADARQSIDVGKTS [I100W]	0.297	-0.693
MAAAGGARLLRAASAVLGGPAGRWLHHAGSRAGSSGLLRNRGPGGSAEASRSLSVSARARSSSEDKITVHFINRDGETLTTKGKVGDSLLDVVVENNLDPDGFGACEGTLACSTCHLIFEDHIYEKLDAITDEENDMLDLAYGLTDRSRLGCQICLTKSMDNMTVRVPETVADARQSIDVGKTS [I100P]	0.146	-0.208
MAAAGGARLLRAASAVLGGPAGRWLHHAGSRAGSSGLLRNRGPGGSAEASRSLSVSARARSSSEDKITVHFINRDGETLTTKGKVGDSLLDVVVENNLDGDGFGACEGTLACSTCHLIFEDHIYEKLDAITDEENDMLDLAYGLTDRSRLGCQICLTKSMDNMTVRVPETVADARQSIDVGKTS [I100G]	-0.02	0.208
MAAAGGARLLRAASAVLGGPAGRWLHHAGSRAGSSGLLRNRGPGGSAEASRSLSVSARARSSSEDKITVHFINRDGETLTTKGKVGDSLLDVVVENNLDNDGFGACEGTLACSTCHLIFEDHIYEKLDAITDEENDMLDLAYGLTDRSRLGCQICLTKSMDNMTVRVPETVADARQSIDVGKTS [I100N]	0.181	0.295
MAAAGGARLLRAASAVLGGPAGRWLHHAGSRAGSSGLLRNRGPGGSAEASRSLSVSARARSSSEDKITVHFINRDGETLTTKGKVGDSLLDVVVENNLDSDGFGACEGTLACSTCHLIFEDHIYEKLDAITDEENDMLDLAYGLTDRSRLGCQICLTKSMDNMTVRVPETVADARQSIDVGKTS [I100S]	0.183	1.01
MAAAGGARLLRAASAVLGGPAGRWLHHAGSRAGSSGLLRNRGPGGSAEASRSLSVSARARSSSEDKITVHFINRDGETLTTKGKVGDSLLDVVVENNLDTDGFGACEGTLACSTCHLIFEDHIYEKLDAITDEENDMLDLAYGLTDRSRLGCQICLTKSMDNMTVRVPETVADARQSIDVGKTS [I100T]	0.138	-0.631
MAAAGGARLLRAASAVLGGPAGRWLHHAGSRAGSSGLLRNRGPGGSAEASRSLSVSARARSSSEDKITVHFINRDGETLTTKGKVGDSLLDVVVENNLDLDGFGACEGTLACSTCHLIFEDHIYEKLDAITDEENDMLDLAYGLTDRSRLGCQICLTKSMDNMTVRVPETVADARQSIDVGKTS [I100L]	-0.145	0.198
MAAAGGARLLRAASAVLGGPAGRWLHHAGSRAGSSGLLRNRGPGGSAEASRSLSVSARARSSSEDKITVHFINRDGETLTTKGKVGDSLLDVVVENNLDQDGFGACEGTLACSTCHLIFEDHIYEKLDAITDEENDMLDLAYGLTDRSRLGCQICLTKSMDNMTVRVPETVADARQSIDVGKTS [I100Q]	0.155	0.874
MAAAGGARLLRAASAVLGGPAGRWLHHAGSRAGSSGLLRNRGPGGSAEASRSLSVSARARSSSEDKITVHFINRDGETLTTKGKVGDSLLDVVVENNLDYDGFGACEGTLACSTCHLIFEDHIYEKLDAITDEENDMLDLAYGLTDRSRLGCQICLTKSMDNMTVRVPETVADARQSIDVGKTS [I100Y]	0.0992	-0.139
MAAAGGARLLRAASAVLGGPAGRWLHHAGSRAGSSGLLRNRGPGGSAEASRSLSVSARARSSSEDKITVHFINRDGETLTTKGKVGDSLLDVVVENNLDVDGFGACEGTLACSTCHLIFEDHIYEKLDAITDEENDMLDLAYGLTDRSRLGCQICLTKSMDNMTVRVPETVADARQSIDVGKTS [I100V]	-0.852	0.0203
MAAAGGARLLRAASAVLGGPAGRWLHHAGSRAGSSGLLRNRGPGGSAEASRSLSVSARARSSSEDKITVHFINRDGETLTTKGKVGDSLLDVVVENNLDKDGFGACEGTLACSTCHLIFEDHIYEKLDAITDEENDMLDLAYGLTDRSRLGCQICLTKSMDNMTVRVPETVADARQSIDVGKTS [I100K]	0.223	0.128
MAAAGGARLLRAASAVLGGPAGRWLHHAGSRAGSSGLLRNRGPGGSAEASRSLSVSARARSSSEDKITVHFINRDGETLTTKGKVGDSLLDVVVENNLDRDGFGACEGTLACSTCHLIFEDHIYEKLDAITDEENDMLDLAYGLTDRSRLGCQICLTKSMDNMTVRVPETVADARQSIDVGKTS [I100R]	0.287	0.0979
MAAAGGARLLRAASAVLGGPAGRWLHHAGSRAGSSGLLRNRGPGGSAEASRSLSVSARARSSSEDKITVHFINRDGETLTTKGKVGDSLLDVVVENNLDICGFGACEGTLACSTCHLIFEDHIYEKLDAITDEENDMLDLAYGLTDRSRLGCQICLTKSMDNMTVRVPETVADARQSIDVGKTS [D101C]	-0.242	0.242
MAAAGGARLLRAASAVLGGPAGRWLHHAGSRAGSSGLLRNRGPGGSAEASRSLSVSARARSSSEDKITVHFINRDGETLTTKGKVGDSLLDVVVENNLDIAGFGACEGTLACSTCHLIFEDHIYEKLDAITDEENDMLDLAYGLTDRSRLGCQICLTKSMDNMTVRVPETVADARQSIDVGKTS [D101A]	-0.221	-0.578

Source: the supplement of paper PMC12855868
